The target in series [1] is Rok with a C-terminal His-tag (Rok-6xHis) (B. subtilis 168) (UniProt O34857).
Series [2] has as its target T1, Rok (Bacillus subtilis 168, UniProt O34857 1-191).
T1 sequence: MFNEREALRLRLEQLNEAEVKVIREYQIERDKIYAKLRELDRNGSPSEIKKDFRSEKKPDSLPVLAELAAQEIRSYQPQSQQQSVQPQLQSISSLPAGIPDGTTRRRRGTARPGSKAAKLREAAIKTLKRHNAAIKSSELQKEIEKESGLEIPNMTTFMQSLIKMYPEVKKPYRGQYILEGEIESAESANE
Nature of the series: TPM. Conditions: Hill n=6.5 ± 0.4; 50 mM KCl; MST: 10 mM Tris-HCl pH 8, 150 mM KCl, 5% glycerol, 0.05% Tween20, 0.08 mg/ml acetylated BSA, RT, 40 nM DNA; TPM: 50 mM KCl; bridging: 50 mM KCl ….

Series [3] relates to Rok Δ75-96 (Bacillus subtilis 168). In words: TPM. Conditions: Hill n=5.7 ± 0.9; 50 mM KCl; MST: 10 mM Tris-HCl pH 8, 150 mM KCl, 5% glycerol, 0.05% Tween20, 0.08 mg/ml acetylated BSA, RT, 40 nM DNA; TPM: 50 mM KCl; bridging: 50 mM KCl ….
The target in series [4] is T1, Rok. Nature of the series: bridging pull-down; 0.27 uM Rok, bait N1; minimal bridged length; MST: 10 mM Tris-HCl pH 8, 150 mM KCl, 5% glycerol, 0.05% Tween20, 0.08 mg/ml acetylated BSA, RT, 40 nM DNA; TPM: 50 mM KCl; bridging: 50 mM KCl, 25 C. To be noted: protein: recombinant; chain copies: 2; label: 32P; blunt.
For series [5], the target named is T1, Rok. Nature of the series: MST; 10 mM MgCl2; MST: 10 mM Tris-HCl pH 8, 150 mM KCl, 5% glycerol, 0.05% Tween20, 0.08 mg/ml acetylated BSA, RT, 40 nM DNA; TPM: 50 mM KCl; bridging: 50 mM KCl, 25 C. To be noted: protein: recombinant; chain copies: 2; label: 5'-Cy5 top strand; blunt.
Series [6] concerns the target T1, Rok. In words: MST; no MgCl2; McGhee-von Hippel n=30 bp; MST: 10 mM Tris-HCl pH 8, 150 mM KCl, 5% glycerol, 0.05% Tween20, 0.08 mg/ml acetylated BSA, RT, 40 nM DNA; TPM: 50 mM KCl; bridging: 50 mM KCl, 25 C. Conditions: protein: recombinant; chain copies: 2; label: 5'-Cy5 top strand; blunt.
In series [7] the target is T1, Rok. Nature of the series: MST; up to 35 mM MgCl2; MST: 10 mM Tris-HCl pH 8, 150 mM KCl, 5% glycerol, 0.05% Tween20, 0.08 mg/ml acetylated BSA, RT, 40 nM DNA; TPM: 50 mM KCl; bridging: 50 mM KCl, 25 C. To be noted: protein: recombinant; chain copies: 2; label: 5'-Cy5 top strand; blunt.

Usually Kd stands for the free concentration of one partner at which half of the binding sites on the other are occupied at equilibrium, for simple one-to-one binding.

With small Rok (sRok) (natural protein), in series [1], the DNA recovery (%) in the DNA bridging assay with different Rok:sRok ratios (total protein 0.5 uM, 50 mM KCl + 1 mM MgCl2, 25°C); value at 20% sRok; Rok here is the untagged protein was 40%.

As for 685 bp AT-rich (32% GC) DNA, the K half with Rok [2] came out at 6.1 nM; in series [3] it was 8.8 nM.

B1: 100 bp prey (dsDNA)
DNA 1: GATATATGGACTCTTAGTGGCAAATATATAATGTATAAGTTCTGGAGTAGTATGGTAATAACTATTTTATTTTCGATAGCTTGAATGTTTATTTTCCCAG
DNA 2: CTGGGAAAATAAACATTCAAGCTATCGAAAATAAAATAGTTATTACCATACTACTCCAGAACTTATACATTATATATTTGCCACTAAGAGTCCATATATC
As to B1, the binding result in the series with Rok [4] is listed as “binds”.

B2: MST aspecific 78 bp (dsDNA)
DNA 1: CGGCGCAAATTCGTGACCAGTTGCATCAGCTGCGTGAGCTGTTTATCGCAGCATCGTAACAGGATAGTGAAGAAGACT
DNA 2: AGTCTTCTTCACTATCCTGTTACGATGCTGCGATAAACAGCTCACGCAGCTGATGCAACTGGTCACGAATTTGCGCCG
Take B2: the Kd in the series with Rok [5] is 34.6 ± 8 µM; with Rok [6] it was 79.4 ± 20 µM.

B3: MST specific 78 bp (TACTA) (dsDNA)
DNA 1: CGGCGCAAATTCGTGACCAGTTGCATCAGCTACTAGAGCTGTTTATCGCAGCATCGTAACAGGATAGTGAAGAAGACT
DNA 2: AGTCTTCTTCACTATCCTGTTACGATGCTGCGATAAACAGCTCTAGTAGCTGATGCAACTGGTCACGAATTTGCGCCG
B3: in the series with Rok [7], the Kd was about 100 µM.

These data come from paper PMC9757077, “The B. subtilis Rok protein is an atypical H-NS-like protein irresponsive to physico-chemical cues”.
